Consider one substance from US20090192048A1, “METHOD OF PRODUCING A […] AGENT FOR BINDING A LIGAND” (priority 2005, published 2009).

A short description of this series: pH resistance of peptide 2DOS-2 deposited onto a polypropylene hydrophobic surface. The class given is physicochemical. The conditions noted are these: for Retained fluorescence: 100 mM phosphate buffer 30 minutes. The method, then: The pH resistance of peptide 2DOS-2 (see above) deposited onto a polypropylene hydrophobic surface was investigated:
Twelve 50 μl aliquots of peptide 2DOS-2 in 10 mM tris-HCl (pH 8.0) in 50% (v/v) aqueous acetonitrile were dried down in the wells of a Costar microtitre plate.
The peptide samples were allowed to evaporate to dryness in the dark.
The dried peptide samples in the first eleven wells were incubated with 200 μl of 100 mM phosphate buffer for 30 minutes at room temperature according to the scheme shown in Table 3:
All supernatants were pipetted off and the residual surface-bound peptides in all twelve wells were finally resuspended in 50 μl of 10 mM tris-HCl (pH 8.0) in 50% (v/v) aqueous acetonitrile and the microtitre plate was imaged at 200 μm resolution on a Typhoon Trio Plus variable mode imager (Amersham Biosciences) with the green (532 nm) laser and the 580 BP 30 filter at the PMT voltages indicated below and at normal sensitivity. The scan height was set at +3 mm and the sample was pressed during scanning.
The fluorescence images were analysed using ImageQuant TL v2003.03 (Amersham Biosciences).
Quantification data for peptide 2DOS-2 retention (using data from the 300V scan) are given in Table 8 and graphically in FIG. 19: […]

Ends that are not written are not given here.

Regarding “N-TAMRA-Phe-Asp- Phe-Ala-Phe-Ser- Phe-Lys-Phe-C ({TAMRA}-FDFAFSFKF) [Peptide 2DOS-2]”, the Untreated fluorescence (300V scan, unwashed well) is listed as 815,706. Moreover, under “pH 4.51 to 8.52”, the “Stability of retention on polypropylene over pH (in words)” value was “stable over a broad range of pH values”. Besides, the Percent retention (wash pH 4.51) worked out at 83%; the Percent retention (wash pH 5.65) stood at 71%; the Percent retention (wash pH 6.02) is 67%; the Percent retention (wash pH 6.25) came out at 67%; the Percent retention (wash pH 6.47) stood at 72%; the Percent retention (wash pH 6.62) was 69%. Moreover, the Percent retention worked out at 71% (wash pH 6.79); 70% (wash pH 6.98); 72% (wash pH 7.18); 75% (wash pH 7.47); 81% (wash pH 8.52). For the same substance, the Retained fluorescence by setting is: (wash pH 4.51, 300V scan) 681,015; (wash pH 5.65, 300V scan) 582,482; (wash pH 6.02, 300V scan) 548,329; (wash pH 6.25, 300V scan) 542,595; (wash pH 6.47, 300V scan) 589,528; (wash pH 6.62, 300V scan) 566,496. For the same substance, the Retained fluorescence is, setting by setting: (wash pH 6.79, 300V scan) 576,655; (wash pH 6.98, 300V scan) 570,653; (wash pH 7.18, 300V scan) 586,083; (wash pH 7.47, 300V scan) 614,028; (wash pH 8.52, 300V scan) 661,781.
